Starred links: 1 amine or outer side, 2 acyl side, 3 side chain; linkers in the order of their positions; H or OH if unused. Positions of bridges follow the written chain, without caps; N, C: chain ends. Non-standard residues stand in square brackets, D forms with d. Primed or numbered codes have the meaning given here. No end group written: not given here. TATA′ = 1,3,5-triacryloylhexahydro-1,3,5-triazine scaffold bound to the three cysteines; TATA = O=C(CC[*:1])N1CN(C(=O)CC[*:2])CN(C(=O)CC[*:3])C1; Phe(4-Me) = Cc1ccc(C[C@H](N)C(=O)O)cc1; Ser(ΨH,HPro) = O=C(O)[C@@H]1COCN1; Nle = CCCC[C@H](N)C(=O)O; PEG3′ = not defined here; Ac5c = NC1(C(=O)O)CCCC1
B1: BCY592 (peptide)
peptide: ACIEEGQYCFADPYMCA
modifications: linker 2-9-16 via TATA
B2: BCY7210 (peptide)
peptide: ACIEEGQYCFADPYXCA
modifications: [PEG3]ACIEEGQYCFADPY[tBuAla]CA; fluorescein-labelled; cyclised on TATA
notes: also called [PEG3]-(74-01-04) tBuAla12
B3: BCY7958 (peptide)
peptide: Ac-ACI[Ser(ΨH,HPro)]EGQYCFADPY[Nle]CA
modifications: linker 2-9-16 via TATA′
notes: also called Ac-(74-01-04) Oxa2 Nle12
B4: BCY7961 (peptide)
peptide: Ac-ACIPE[dA]PYCFADPY[Nle]CA
modifications: linker 2-9-16 via TATA′
notes: also called Ac-(74-01-04) Pro2 DAla4 Pro5 Nle12
B5: BCY8217 (peptide)
peptide: ACIEEGQYCFADPYXCA
modifications: ACIEEGQYCF[dA]DPY[Nle]CA; cyclised on TATA
notes: also called A-(74-01-04)-A D-Ala8 Nle12
B6: BCY8658 (peptide)
peptide: Ac-AC[Ac5c]EEGQYCFADPY[Nle]CA
modifications: linker 2-9-16 via TATA
notes: also called Ac-(74-01-04) Ac5c1 Nle12
B7: BCY8665 (peptide)
peptide: Ac-ACIEE[Ac5c]QYCFADPY[Nle]CA
modifications: linker 2-9-16 via TATA
notes: also called Ac-(74-01-04) Ac5c4 Nle12
B8: BCY8670 (peptide)
peptide: Ac-ACIEEGQ[Phe(4-Me)]CFADPY[Nle]CA
modifications: linker 2-9-16 via TATA
notes: also called Ac-(74-01-04) 4MePhe6 Nle12
B9: BCY8676 (peptide)
peptide: ACIEEGQYCFXDPYXCA
modifications: [Ac]ACIEEGQYCF[Abu]DPY[Nle]CA; cyclised on TATA
notes: also called Ac-(74-01-04) Abu8 Nle12
B10: BCY7166 (peptide)
peptide: [PEG3′]ACIEE[dF]QYCFADPY[Nle]CA
modifications: linker 3-10-17 via TATA; also: fluorescein-labelled
notes: also called [PEG3]-(74-01-04) D-Phe4 Nle12
B11: BCY7290 (peptide)
peptide: [PEG3′]ACIEEGQYCFAAPY[Nle]CA
modifications: linker 3-10-17 via TATA; also: fluorescein-labelled
notes: also called [PEG3]-(74-01-04) Ala9 Nle12

Key:
[1] = target: CD137 on Jurkat reporter cells (Promega CD137 luciferase reporter assay) (UniProt Q07011 24-255, limits assumed); assay: cell-based or functional assay
[2] = target: T1, human CD137 protein (direct binding assay) (human, UniProt Q07011 24-186, limits assumed); assay: FP direct binding
T1 construct: Soluble CD137 protein titrated from 3 uM in the fluorescence polarisation assay; also called hCD137; TNFRSF9
Procedure: Affinity of the peptides of the invention for human CD137 (Ki) was determined using a fluorescence polarisation assay, in accordance with the methods disclosed in WO 2016/067035. […] CD137 protein was titrated starting at 3 μM in the same assay buffer as the peptide to assay 1 nM peptide in a total volume of 25 μL in black walled and bottomed low bind low volume 384 well plates. […] The concentrations of CD137 protein were 1 in 2 serial dilutions to give 12 different concentrations starting at 3 μM. Measurements were conducted on a BMG PHERAstar FS equipped with an FP 485 520 520 optic module at 25° C. with 200 flashes per well and a positioning delay of 0.1 second. Alternatively, the measurements were performed using Envision (PerkinElmer) equipped with FITC FP Dual Enh mirror, set to 30 flashes. Each well was measured every 5 minutes for 60 minutes. The gain used for analysis was determined for each tracer at the end of the 60 minutes where there was no protein in the well. The mP were fit to a standard 1:1 binding model with a quadratic equation to generate a Kd value.

[3] = target: T2, Recombinant human CD137 homotrimer (R&D systems), biotinylated (human, UniProt Q07011 24-186, limits assumed, biotinylated with EZ-Link Sulfo-NHS-LC-LC-Biotin); assay: SPR (Biacore T200), biotinylated CD137 on streptavidin
T2 construct: also called biotinylated CD137
Procedure: (§1) Biacore experiments were performed to determine kₐ (M⁻¹s⁻¹), kd (s⁻¹), KD (nM) values of peptides binding to human CD137 protein. […] The protein was desalted to remove uncoupled biotin using spin columns into PBS.
(§2) For analysis of binding, a Biacore T200 instrument was used utilising a XanTec CMD500D chip. Streptavidin was immobilized on the chip using standard amine-coupling chemistry at 25° C. with HBS-N (10 mM HEPES, 0.15 M NaCl, pH 7.4) as the running buffer. Briefly, the carboxymethyl dextran surface was activated with a 7 min injection of a 1:1 ratio of 0.4 M 1-ethyl-3-(3-dimethylaminopropyl) carbodiimide hydrochloride (EDC)/0.1 M N-hydroxy succinimide (NHS) at a flow rate of 10 μl/min. For capture of streptavidin, the protein was diluted to 0.2 mg/ml in 10 mM sodium acetate (pH 4.5) and captured by injecting 120 μl of onto the activated chip surface. Residual activated groups were blocked with a 7 min injection of 1 M ethanolamine (pH 8.5) and biotinylated CD137 captured to a level of 800-1800 RU. Buffer was changed to PBS/0.05% Tween 20 and a dilution series of the peptides was prepared in this buffer with a final DMSO concentration of 0.5%. The top peptide concentration was 500 nM or 10 μM with 6 further 3-fold (500 nm), or 2-fold (10 μM) dilutions in PBS/0.05% Tween 20. The SPR analysis was run at 25° C. at a flow rate of 90 μl/min with 60 seconds association and 100-600 seconds dissociation. After each cycle, a regeneration step (10 μl of 10 mM glycine pH 2) was employed. Data were corrected for DMSO excluded volume effects. All data were double-referenced for blank injections and reference surface using standard processing procedures and data processing and kinetic fitting were performed using Scrubber software, version 2.0c (BioLogic Software). Data were fitted using mass transport model allowing for mass transport effects where appropriate.

[4] = target: T2, Recombinant human CD137 homotrimer (R&D …); assay: SPR (Biacore T200), biotinylated CD137 on streptavidin (n = 2)
Procedure: as §1
as §2, with “The SPR analysis was run at 25° C. at a flow rate of 90 μl/min with 60 seconds association and 100-600 seconds dissociation. After each cycle, a regeneration step (10 μl of 10 mM glycine pH 2) was employed. Data were corrected for DMSO excluded volume effects. All data were double-referenced for blank injections and reference surface using standard processing procedures and data processing and kinetic fitting were performed using Scrubber software, version 2.0c (BioLogic Software). Data were fitted using mass transport model allowing for mass transport effects where appropriate.” left out

Sequence of CD137 on Jurkat reporter cells (Promega CD137 luciferase reporter assay) (Q07011 24-255 limits assumed): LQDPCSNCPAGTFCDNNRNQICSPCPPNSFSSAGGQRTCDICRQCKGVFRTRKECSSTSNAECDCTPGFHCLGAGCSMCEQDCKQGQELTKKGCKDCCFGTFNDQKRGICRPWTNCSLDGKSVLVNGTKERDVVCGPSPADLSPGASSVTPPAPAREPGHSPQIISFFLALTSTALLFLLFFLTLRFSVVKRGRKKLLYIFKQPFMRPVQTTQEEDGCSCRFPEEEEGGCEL

Binder | Kd [3] | other results
B1 | – | IC50 (% inhibition of CD137L-induced NF-kB luciferase activity in CD137 Jurkat reporter cells) [1]: 3960 nM
B2 | – | Kd [2]: 70 nM
B3 | 20 nM | –
B4 | 10 nM | –
B5 | 500 nM | –
B6 | 200 nM | –
B7 | – | Kd [4]: 200 nM
B8 | 1000 nM | –
B9 | 1000 nM | –
B10 | – | Kd [2]: 10 nM
B11 | – | Kd [2]: > 3000 nM
